18 sequences from the DeepSol protein solubility set can be followed below.

This data set is described as follows: soluble on expression in E. coli; label from the status in PepcDB or PDB records.
As to “MEDPVFTFGLIADVQYADIEDGENYLRTRRRYYRGSADLLRDAVLQWRRERVQCVVQLGDIIDGHNRRRDASDRALDTVMAELDACSVDVHHVWGNHEFYNFSRPSLLSSRLNSAQRTGTDTGSDLIGDDIYAYEFSPAPNFRFVLLDAYDLSVIGREEESEKHTHSWRILTQHNHNLQDLNLPPVSVGLEQRFVKFNGGFSEQQLQWLDAVLTLSDHKQERVLIFSHLPVHPCAADPICLAWNHEAVLSVLRSHQSVLCFIAGHDHDGGRCTDSSGAQHITLEGVIETPPHSHAFATAYLYEDRMVMKGRGRVEDLTITYS”, the “soluble on expression in E. coli” value was “not soluble”.

Consider “MEEDSREDDFNGKIRRSLCEWLGPFEEFHDRVAKNQQTSRHGLIRSKMKPRPSPFVTLQAPPHESPSHVPVHVALQSMKNLVDERITEITHHEFADLKKGMNNVKSSATSSTDKKRKIGEDEDSQIEVKRKKESRNYIPPSTPDSGTHSTESDMIEEPNSDEVAAMLSIMKTLDTPKLSPLPKDFKVVCKEDEQPGPSSSKFPSDSSVSAASTSRESTPEPKLLGTLRIKALKPERVQKLIELAKTRGKLTDVVEVEKKVVEKVVEKQEKRVLEPLPPPPRPPSVPAVPAVPTPSRDPILGPGSGSARNSPLPPQKPANKTVQSLQGLQGSSRTMSPSPRNIRSTTPSVPSRPPSALSTHSHVETEVAAVATTSAPAEASAAVKPRFVCQWSHARLKKAQRVPFPDPSSTSTKTKGEFYHALAKDWKSKADNSKDRVTRPLNYMLSSVFFVLEAIWKADKERTTQSKMQCASIYRDTYELLGVAVFQGVRDTDDSLAVHILPRVKVIGQVMLAVMQYQMYIFRSEQAIKTMSRLDMREVSESIDIRPVSRASDSSSVHSQHLTVPTNKAVTSVAHGTPKPSPSAGSTPSGPTGAPVIPWIASIQACQNMVSMPQIVYDAYKSQLKTANGLMLASRYWEDSKTLSNIIDSGTFVKDVESIVGKSISMDMQFADLATFVLTAVGSLKAEYEEEQKQPAKPILAKVKKGLDLAIRTGTFHSDRPPPVHRPSNNTPDGKARRKQ”, for which the “soluble on expression in E. coli” value was “not soluble”.

Regarding “MEEELPLFSGDSGKPVQATLSSLKMLDVGKWPIFSLCSEEELQLIRQACVFGSAGNEVLYTTVNDEIFVLGTNCCGCLGLGDVQSTIEPRRLDSLNGKKIACLSYGSGPHIVLATTEGEVFTWGHNAYSQLGNGTTNHGLVPCHISTNLSNKQVIEVACGSYHSLVLTSDGEVFAWGYNNSGQVGSGSTVNQPIPRRVTGCLQNKVVVTIACGQMCCMAVVDTGEVYVWGYNGNGQLGLGNSGNQPTPCRVAALQGIRVQRVACGYAHTLVLTDEGQVYAWGANSYGQLGTGNKSNQSYPTPVTVEKDRIIEIAACHSTHTSAAKTQGGHVYMWGQCRGQSVILPHLTHFSCTDDVFACFATPAVTWRLLSVEPDDHLTVAESLKREFDNPDTADLKFLVDGKYIYAHKVLLKIRCEHFRSSLEDNEDDIVEMSEFSYPVYRAFLEYLYTDSISLSPEEAVGLLDLATFYRENRLKKLCQQTIKQGICEENAIALLSAAVKYDAQDLEEFCFRFCINHLTVVTQTSGFAEMDHDLLKNFISKASRVGAFKN”, the “soluble on expression in E. coli” value is recorded as “not soluble”.

“MEEIDDKSKFKVPSWAAKPPNGAHLDVQKGDALIQKLLIDDKKAYYFGRNNKQVDFAVEHASCSRVHALLLYHGLLQRFALIDMDSSHGTFLGNVRLRPLEVVFMDPGTQFHLGASTRKYSVRLKTEHHVEDDPTVAASDEQLDHQTSYNTAQNRRIPQLPISVEEARRKKRPRGNVAFLEEEEVINPEDVDPSVGRFRNLVTTAIISTNPNKRPGDPKRSEPPRKIVRPGRELMSAPLSSTFGPMALNAAPDLELYGKLLPEPGHHQYVTSTATEDEADDHHKKRYAKEAWPGRKPGAGIF”: the “soluble on expression in E. coli” value is on record as “soluble”.

Regarding “MEELASLTKTADGKVLTSVTQKRNRADAATYIGKGKVEELKALVEELEADLLIFNDELSPSQLKSLATAIEVKMIDRTQLILDILAKRARTREGKLQIELAQLQYALPRLTGQGINLSRQGGGIGARGPGETKLETDRRHIRNRIHEINTQVSTVIRHRSRYRERRKKNGVLQIALVGYTNAGKSTWFNRLTSADSYEEDLLFATLDPMTRKMVLPSGYSVLLSDTVGFIQDLPTTLIAAFRSTLEEVKEADLILHLIDSSNEDYAGHEKTVLRLLEELEADDIPMLTAYNKRDQKLPDFYRPPEGITLWSVRNLRTTLQPLKKRFSAICAKNCLEHHHHHH”, the “soluble on expression in E. coli” value is given as “not soluble”.

For the sequence “MEENSADIENRPVAAFRPAVSVPMPVLPQDGEVFVGPGGKKDAQKIGLGLSKLSSKRKDDIQMAKKYAMDISIKQILLRQQKQQQENQQRQQMYSQALSIMSRIYVGSISFEIREDMLRRAFDPFGPIKSINMSWDPATGHHKTFAFVEYEVPEAALLAQESMNGQMLGGRNLKVNSMMFQEMRLPQNMPQAQPIIDMVQKDAKKYFRVYVSSVHPDLSETDLKSVFEAFGEIVKCQLARAPTGRGHRGFGYLEFNNLTSQSEAIAGMNMFDLGGQYLRVGKCVTPPDALTYLQPASVSAIPASVSVACAAITAKVMAAEAAAGSSPKTPSESGGSRAASPAPRAQSPATPSSSLPTDIENKAVISSPKKEPEEIEVPPLPPSAPDVVKDEPMEIEEEEEYTIPEEKPKPVAIVPPPGLAIPSLVAPPGLIAPTEIGIVVPNPSFLAQQQQKIEEKIEEEEEARTERVKLSTSQRKKMKREKLNQMTFEEKMAQVLGQQKAVQNQRMADPVTFGALDDTVAWKDPSNEDQTSEDGKMLAIMGPGRGGDNVASMALALMDGGSSLMLANNAKAKEAAAALALEPKKKKKVKEGKKIQPKLNTAQALAAAAKAGEMSDALKNEVMNSEDASLASQEGLEIRGNDARHLLMTKLMRTNRSNVIVLRNMVTPQDIDEFLEGEIREECGKYGNVIDVVIANFASSGLVKIFVKYSDSMQVDRAKAALDGRFFGGNTVKAEAYDQILFDHADYTG”, the “soluble on expression in E. coli” value is “not soluble”.

For the sequence “MEERDRVKITDRLARPLRDLRLSVIDQCNFRCVYCMPAEVFGPNFRFLAEDQLLTVEEMALLAECFVELGVEKIRLTGGEPLLRRDLDALIERLSALPGLRDIGLTTNGVHLVKWAQRLKAAGLKRVNVSLDALDDDIFRKMNGIGVGAAPVLKGIEAALAAGLGVKVNMVVKKGWNDSQIVPMAAYFKDLGIPLRLIEFMDVGTTNGWDYSHVVTKKEMYEQINAMHPLEPVEKEYFGEVASRYRYAGTNVEVGFIASVTETFCQSCTRARISADGKLYTCLFASKGVSLKDKLRAGEGKEEIKALITTVWNRRTDRYSEERTAETAKQRPKIEMSYIGG”, the “soluble on expression in E. coli” value was “not soluble”.

“MEERPSETNSNVDSSAQPSVAQLAGRFREHAAVARETPASKPTRRKPPCSLPLFPPKVELGQNGEEKSPSGASHPPKIKVKSSPLIEKLQANLAFDPAALLPGASPKSPGLKAIISPFHSPPSTPSSPGIRSHPSEAEEVPVSFDQPPEGTHLPSYNKVRTRGSIKRRPPSRRFRRSQSDCGDFRDYRAVEPSQENGAREENGDDVFPSKSKDPGSPQLNQEAMADGVEGTPRSAEKPRRRNTCNSTEKPEELVRTPEEANAGEKVGQNPDTASQGHPEVQAPSQTGSPEAENGCGSPREETAPGEHTDTGKATEGTASEERVADEDRLGQKSPDANMPEEEGVVREKAPQTSSGKAEGTTIAEPDTKQKEEAPLEPSCSPGADHAAGEITSEIQNEKAVSMDDIPIEDTRM”: the “soluble on expression in E. coli” value is “not soluble”.

For “MEFDPVKINTSSIDHVTILQYIDEPNDIRLTVCIIRNINNITYYINITKINPHLANRFRAWKKRIAGRDYMTNLSRDTGIQQSKLTETIRNCQKNKNIYGLYIHYNLVINVVIDWITDVIVQSILRGLVNWYIANNTYTPNTPNNTTTISELDIIKILDKYEDMYRVSKEKECGICYEVVYSKRLENDRYFGLLDSCNHIFCITCINIWHRTRRETGALDNCPICRTRFRKITMSKFYKLVN”, the “soluble on expression in E. coli” value is listed as “not soluble”.

Turning to “MEGMDPLAVLAESRLLPLLTVRGGEDLLGLARVLEEEGVGALEITLRTEKGLEALKALRKSGLLLGAGTVRSPKEAEAALEAGAAFLVSPGLLEEVAALAQARGVPYLPGVLTPTEVERALALGLSALKFFPAEPFQGVRVLRAYAEVFPEVRFLPTGGIKEEHLPHYAALPNLLAVGGSWLLQGNLEAVRAKVRAAKALLSPQAPG”, the “soluble on expression in E. coli” value is “soluble”.

As to “MEGNHEEPQGGLEELSGRWHSVALASNKSDLIKPWGHFRVFIHSMSAKDGNLHGDILIPQDGQCEKVSLTAFKTATSNKFDLEYWGHNDLYLAEVDPKSYLILYMINQYNDDTSLVAHLMVRDLSRQQDFLPAFESVCEDIGLHKDQIVVLSDDDRCQGSRDLEHHHHHH”, the “soluble on expression in E. coli” value is given as “soluble”.

Turning to “MEGPLTIPVLDKGFVRLVDQMGDDRAIVQAARVSYGEGTKTVREDAALIDYLMRHRHTSPFEMVVFKFHVKAPIFVARQWFRHRTASVNEISGRYSILKEEFYEPEAFRKQAKRNKQASEGALLDEEALALLRKVQQEAYGAYRALLEKGVAREMARMVLPLNLYTEFYWKQDLHNLFHFLKLRLAPEAQWEIRQYARAIAEIVKERVPLAWAAFEEHLLEGAFLSRTELRALRGLLTPEVYEKALSSLGLGGSRLKEALEKVFGPGEAL”, the “soluble on expression in E. coli” value is “soluble”.

Regarding “MEIIYPPLVEEGLKYYLETTQQSLDKSTFYRSMVERGIITETGLPTQQAIENGLVKDYYEDQGLSFDDFLRIYPIFEEYDEELFQCIDGYWEIPVDMKENLASQLESGELTFEDAQQIQAYLEDR”, the “soluble on expression in E. coli” value is “not soluble”.

Take “MEITNPILTGFNPDPSLCRQGEDYYIATSTFEWFPGVRIYHSRDLKNWSLVSTPLDRVSMLDMKGNPDSGGIWAPCLSYADGKFWLLYTDVKIVDSPWKNGRNFLVTAPSIEGPWSEPIPMGNGGFDPSLFHDDDGRKYYIYRPWGPRHHSNPHNTIVLQAFDPQTGTLSPERKTLFTGTPLCYTEGAHLYRHAGWYYLMAAEGGTSYEHAVVVLRSKNIDGPYELHPDVTMMTSWHLPENPLQKSGHGSLLQTHTGEWYMAYLTSRPLRLPGVPLLASGGRGYCPLGRETGIARIEWRDGWPYVEGGKHAQLTVKGPQVAEQPAAVPGNWRDDFDASSLDPELQTLRIPFDDTLGSLTARPGFLRLYGNDSLNSTFTQSTVARRWQHFAFRAETRMEFSPVHFQQSAGLTCYYNSKNWSYCFVDYEEGQGRTIKVIQLDHNVPSWPLHEQPIPVPEHAESVWLRVDVDTLVYRYSYSFDGETWHTVPVTYEAWKLSDDYIGGRGFFTGAFVGLHCEDISGDGCYADFDYFTYEPV”: the “soluble on expression in E. coli” value is “soluble”.

In the case of “MEKADIEAIFARSRFISAMNLEILDIDHAGSRFSVRMPLQDTYERGAPGTKQFHGGALAALIDVVGDFAIGMLVGGGVPTMNLRIDYLRPAVGDYVDGVAVVRKAGKSAAVVDIDILCPAGKLVAIGRGTYVPITGLEHHHHHH”, the “soluble on expression in E. coli” value is on record as “not soluble”.

Take “MEKAYDFEVEAPPEVVRDYLMNPENLMKYIPHFKDLKRVDDGWELYVSWLFTIKLKVKRVFTNTDIIYLVEKSEGLIKIKSSLRFTIFPSKGGITIVRLVFFYDGPFESIVKGQADAFYRKGKEVFKTEMTKEKRIQEEQNGVKGEVSIYEMKTIFSGKINKDELEKYLEIAMVKSVNSTVVVILSDERNIIEIKFKGGELVAQKGDLDSLSSPITILIKQLEHHHHHH”: the “soluble on expression in E. coli” value is given as “soluble”.

Turning to “MEKERYFQAETEGEQPETKAEEATAAITQLGQTNVPQMDPDTNIHCLTIVGQIEGHIQLPPQNKATKYEHVIPQIVAIEQNPKIEGLLVILNTVGGDVEAGLAIAEMLASLSKPTVSVVLGGGHSIGVPIAVSCNYSFITETATMTIHPIRLTGLVIGVPQTFEYLDKMQERVVRFVTKHSKISEEKFKELMFSKGNLTRDIGTNVVGPDAVRYGLIDEVGGVSQAMAKLRELIAMRKNGEGKMIQ”, the “soluble on expression in E. coli” value was “not soluble”.

In the case of “MEKIVVIKYKDIKLKSPILIGGLPGIGNVGKIAADYIVEKLNMTKMYDIFSQYLPPQVFINDDSVVHLVRNSIYYKKMRGKHDLVILAGDFQGTTQEAQYELSYQVLQIAKEIGVSMIYTLGGYSIGKIVDKPRVLGAVTDKNLVADLEKNGVVFPKGEPGGGIVGSAGLILGLGMELFNMNGACLMGETSGYFADPKSAMEVLNVLQRQLGIKIDMSDIETRSKQIEQITGKMAEEFQNKQNKEDLGYFG”, the “soluble on expression in E. coli” value is recorded as “soluble”.
